Data taken from patent US20240424117A1, “Paclitaxel Prodrug, Preparation Method and Application Thereof” (WEST CHINA HOSPITAL, SICHUAN UNIVERSITY, priority 2023, published 2024).

How the values were obtained:
Type in all cases: physicochemical
[1] = Particle size, particle size distribution and zeta potential of micelles by dynamic light scattering; conditions: prodrug micelles in aqueous solution, 25° C.; for PDI / Size(nm): DLS
Protocol: The particle size, particle size distribution and zeta potential of micelles were measured by Zetasizer Nano ZS Dynamic light scattering (DLS) potentiometer (Malvern, UK) at 25° C. and 90° scattering angle.

[2] = Study on the stability of micelles in vitro (PBS or added glutathione, DLS); conditions: GSH added, 37° C. shaker, DLS (FIG. 5)
Protocol: In order to study the stability of micelles in vitro, the micellar solution was dropped into PBS simulating the human physiological environment, or a certain amount of glutathione was added. All samples were placed in a 37° C. constant temperature shaker (110 rpm), and the stability of micelles was studied by dynamic light scattering at the pre-determined time points.

[3] = Release performance of prodrug (dialysis, HPLC determination of paclitaxel); conditions: for time to almost complete release of paclitaxel: 37° C.; for change of release rate after the addition of GSH: with GSH (10 mM) versus without
Protocol: The testing instrument was Agilent 1260 series (USA), with a reversed phase C18 column (4.6×100 mm). The mobile phase was acetonitrile/water (80/20), the column temperature was 30° C., the flow rate was 1.0 mL/min, and the detection wavelength was 227 nm.
Firstly, HPLC was used to detect the response of PTX in this mobile phase. After accurately weighing a certain amount of paclitaxel, PTX was prepared with the mixed solvent of acetonitrile and ultrapure water (9/1, v/v) into a series of standard solutions at different concentrations. Linear regression was performed between the measured response peak area A and concentration C, to obtain the standard curve of the PTX solution. The curve equation was fitted, and the concentration-peak area curve equation of PTX was Y=25.025X, with a correlation coefficient of R^2=0.9996.
3 mL of drug-loaded micelles were loaded into a dialysis bag (MWCO=1000), and the release medium was PBS containing 30% ethanol (V/V) (pH 5.0 or 7.4). The release of paclitaxel from self-assembled nanoparticles of prodrug was investigated with or without the addition of glutathione (10 mM GSH). The specific procedures are as follows: 3 mL of prodrug nanoparticle solution (1 mg/mL) was placed into a dialysis bag (MW1000) and added to 30 mL of the release media, and then the entire system was transferred into a constant temperature shaker (37° C., 110 rpm). 1 mL of release solution was collected at different pre-determined time points, taking 3 parallel samples at each time point. After sampling, the same volume of pure PBS or PBS containing 10 mM GSH (10 Mm) was supplemented, and the drug concentration was determined by HPLC. The cumulative release was calculated using the following formula:
[formula] • wherein R is the cumulative release amount; Vi is the total volume of the solution before the i-th sampling; Ci is the total concentration of the solution before the i-th sampling; Vsj is the jth sampling volume; Cj is the total concentration of the solution before the jth sampling, i=2, 3, 4 . . .; j=i−1.

[4] = Transmission electron microscopy of micellar morphology; conditions: TEM (FIG. 3)
Protocol: A small amount of micellar solution fully mixed under ultrasonic was added dropwise onto the copper mesh coated with Formvar film, and then dyed with 1% (w/v) phosphotungstic acid staining solution for 3 min. Subsequently, the excess liquid was absorbed with filter paper, and the copper mesh was allowed to dry naturally. Then, Tecnai G2 F20 S-TWIN transmission electron microscopy (FEI Corporation, USA) was used to observe the micellar morphology, and the acceleration voltage was 75 KV.

[5] = acidic pH 5.0, with GSH (10 mM)
[6] = neutral pH 7.4, with GSH (10 mM)

Substance	Zeta Potential(mV) [1] [mV]	PDI [1]	Size(nm) [1] [nm]	micelle state (particle size and PDI) after addition of glutathione [2]	time to almost complete release of paclitaxel [3, 5] [h]	time to almost complete release of paclitaxel [3, 6] [h]	change of release rate after the addition of GSH [3]	micelle morphology and dispersion [4]
paclitaxel-adipic acid-polyethylene glycol [PAP]	−13.2 ± 0.6	0.103 ± 0.037	109.43 ± 0.94	–	–	–	–	–
paclitaxel-adipic acid-polyethylene glycol-RGD peptide [PAPR]	−9.91 ± 0.3	0.110 ± 0.002	117.93 ± 5.57	–	–	–	–	–
paclitaxel-dithiodipropionic acid-polyethylene glycol [PDP]	−18.1 ± 0.8	0.166 ± 0.003	129.07 ± 1.76	significantly disintegrated	144	120	significantly accelerated	–
paclitaxel-dithiodipropionic acid-polyethylene glycol-RGD Peptide [PDPR]	−7.38 ± 0.8	0.065 ± 0.012	114.63 ± 1.53	significantly disintegrated	144	120	significantly accelerated	uniform particle size and dispersion
